Reference: EP4585616A1, “ANTIBODY CAPABLE OF SPECIFICALLY BINDING TO ROR1, […] THEREOF, AND PREPARATION METHOD THEREFOR AND USE THEREOF” (Hefei Institutes of Physical Science, Chinese Academy of …, priority 2022, dated 2024)

Key:
SK-BR-3 cells = test: In vitro anti-proliferative activity (CCK8); format: cell-based; conditions: Breast cancer, read-out: Proliferation inhibition rate IC50±SD
Method: (§1) The cell lines used in this example, including MCF-7, MDA-MB-231, NCI-N87, NCI-H446, HT-29, HCC827, and HCC1187 cells, were purchased from Cobioer Biosciences, Nanjing, and Yuchi Biology, Shanghai, and cultured according to the corresponding instructions. The above cells in logarithmic growth phase were inoculated into 96-well cell culture plates at a density of 250 to 1500 cells per well (depending on the growth rate of different cells) at 150 µL/well, and cultured at 37°C, 5% CO2 for about 3 to 5 hours. Then, mAb001c-vcMMAE at different concentrations were added, each drug concentration in 2 to 4 replicates, as well as the corresponding vehicle control and blank control wells. After 5 to 6 days of action (depending on the cell growth rate, to ensure a sufficient number of cell divisions), the culture medium was removed and CCK8 reaction solution (purchased from MCE, cat# HY-K0301) was added at 100 µL/well. The reaction was carried out at 37°C until the expected color depth. The cell viability (OD450 nm) of each group was measured, and the cell survival rate was calculated according to the following formula: survival rate = (OD drug-OD blank)/(OD control-OD blank) × 100%. The above data were analyzed by GraphPad Prism 5 software, and the IC50 values of the above ROR1 antibody-drug conjugates for different cell lines were calculated.
(§2) The cell lines used in this example, including breast cancer cell lines MCF-7, SK-BR-3, MDA-MB-231, and HCC1187, colorectal cancer cell lines HT-29, SK-CO-1, and COLO-678, lung cancer cell lines HCC827, and H446, ovarian cancer cell line PA-1, gastric cancer cell line NCI-N87, were purchased from Cobioer Biosciences, Nanjing, and Yuchi Biology, Shanghai, and cultured according to the corresponding instructions. The CCK8 method was used to determine the in vitro killing activity of Hu001-2-MMAE, Hu001-3-MMAE, Hu005-44-MMAE, and Hu005-46-MMAE against various cancer cells, as well as UC961-MMAE as a positive reference. The implementation method was referred to Example 13.

NCI-H446 cells = test: In vitro anti-proliferative activity (CCK8); format: cell-based; conditions: Lung cancer, read-out: Proliferation inhibition rate IC50±SD
Method: as §1, §2

NCI-N87 cells = test: In vitro anti-proliferative activity (CCK8); format: cell-based; conditions: Gastric cancer, read-out: Proliferation inhibition rate IC50±SD
Method: as §1, §2

HCC1187 cells = test: In vitro anti-proliferative activity (CCK8); format: cell-based; conditions: Breast cancer, read-out: Proliferation inhibition rate IC50±SD
Method: as §1, §2

MCF-7 cells = test: In vitro anti-proliferative activity (CCK8); format: cell-based; conditions: Breast cancer, read-out: Proliferation inhibition rate IC50±SD
Method: as §1, §2

HT-29 cells = test: In vitro anti-proliferative activity (CCK8); format: cell-based; conditions: Bowel cancer, read-out: Proliferation inhibition rate IC50±SD
Method: as §1, §2

PA-1 cells = test: In vitro anti-proliferative activity (CCK8); format: cell-based; conditions: Ovarian cancer, read-out: Proliferation inhibition rate IC50±SD
Method: as §1, §2

HCC827 cells = test: In vitro anti-proliferative activity (CCK8); format: cell-based; conditions: Lung cancer, read-out: Proliferation inhibition rate IC50±SD
Method: as §1, §2

COLO-678 cells = test: In vitro anti-proliferative activity (CCK8); format: cell-based; conditions: Bowel cancer, read-out: Proliferation inhibition rate IC50±SD
Method: as §1, §2

MDA-MB-231 cells = test: In vitro anti-proliferative activity (CCK8); format: cell-based; conditions: Breast cancer, read-out: Proliferation inhibition rate IC50±SD
Method: as §1, §2

SK-CO-1 cells = test: In vitro anti-proliferative activity (CCK8); format: cell-based; conditions: Bowel cancer, read-out: Proliferation inhibition rate IC50±SD
Method: as §1, §2

HCC1187 tumors = test: In vivo antitumor activity, subcutaneous tumor model; parameters: species or system immunodeficient mice (NCG or Balb/c-nude); conditions: for Tumor inhibition rate (%): day 21
Method: (§3) 200 µL of cell matrix gel suspension containing 5 × 10^6 MDA-MB-231, 1 × 10^7 HCC1187, 1 × 10^7 PA-1, or 5 × 10^6 NCI-N87 was inoculated subcutaneously on the back of immunodeficient mice (NCG or Balb/c-nude). When the tumor volume grew to 100 to 300 mm3, the mice were randomly divided into groups (n=8 to 10) according to the tumor volume and nude mouse weight. The mice were dosed at doses of 5 mg/kg and 2.5 mg/kg once a week through the tail vein for a total of 3 weeks, as well as a group with PBS set as a negative control. The tumor volume and nude mouse weight were measured and recorded 2 to 3 times a week to plot the tumor growth curve. The formula for calculating tumor volume (V) is: V=1/2×a×b2, where a and b represent the length and width of the tumor, respectively.

NCI-N87 tumors = test: as above; parameters: species or system immunodeficient mice (NCG or Balb/c-nude); conditions: for Tumor inhibition rate (%): day 21
Method: as §3

PA-1 tumors = test: as above; parameters: species or system immunodeficient mice (NCG or Balb/c-nude); conditions: PA-1 model; for Tumor inhibition rate (%): day 28
Method: as §3

[1] = 2.5mg/kg once a week x3, tail vein
[2] = 5mg/kg once a week x3, tail vein

B1: UC961-MMAE: UC961 coupled with vcMMAE, prepared as a positive reference, average DAR about 3.95 (conjugate)
VH: QVQLQESGPGLVKPSQTLSLTCTVSGYAFTAYNIHWVRQAPGQGLEWMGSFDPYDGGSSYNQKFKDRLTISKDTSKNQVVLTMTNMDPVDTATYYCARGWYYFDYWGHGTLVTVSS
VL: DIVMTQTPLSLPVTPGEPASISCRASKSISKYLAWYQQKPGQAPRLLIYSGSTLQSGIPPRFSGSGYGTDFTLTINNIESEDAAYYFCQQHDESPYTFGEGTKVEIK
Q: Which results are given for B1?
A: IC50 (SK-BR-3 cells): > 100 nM; IC50 (NCI-H446 cells): 11.6 ± 2.52 nM; IC50 (NCI-N87 cells): 11.2 ± 2.47 nM; IC50 (HCC1187 cells): 3 ± 1.5 nM; IC50 (MCF-7 cells): > 100 nM; IC50 (HT-29 cells): 24.6 ± 1.04 nM; IC50 (PA-1 cells): 3.35 ± 0.12 nM; IC50 (HCC827 cells): 45.3 ± 25.7 nM; IC50 (COLO-678 cells): 19.1 ± 0.78 nM; IC50 (MDA-MB-231 cells): 13.5 ± 3.61 nM; IC50 (SK-CO-1 cells): 5.75 ± 2.46 nM; Tumor volume ± SE (mm^3) on day 21th of administration (HCC1187 tumors; [1]): 2576.56±461.28 mm^3; Tumor inhibition rate (%) (HCC1187 tumors; 2.5mg/kg): 15.18%; Tumor volume ± SE (mm^3) on day 21th of administration (HCC1187 tumors; [2]): 407.09±69.85 mm^3; Tumor inhibition rate (%) (HCC1187 tumors; 5mg/kg): 86.60%; Tumor volume ± SE (mm^3) on day 21th of administration (NCI-N87 tumors; [1]): 2010.44±266.07 mm^3; Tumor inhibition rate (%) (NCI-N87 tumors; 2.5mg/kg): 19.87%; Tumor volume ± SE (mm^3) on day 21th of administration (NCI-N87 tumors; [2]): 1171.18±130.32 mm^3; Tumor inhibition rate (%) (NCI-N87 tumors; 5mg/kg): 53.32%; Tumor volume ± SE (mm^3) on day 28th of administration (PA-1 tumors; [1]): 1032.13±123.29 mm^3; Tumor inhibition rate (%) (PA-1 tumors; 2.5mg/kg): 32.09%; Tumor volume ± SE (mm^3) on day 28th of administration (PA-1 tumors; [2]): 44.67±3.04 mm^3; Tumor inhibition rate (%) (PA-1 tumors; 5mg/kg): 97.06%
